In PMC4579600, “Structure of HCMV glycoprotein B in the postfusion conformation bound to a neutralizing human antibody” (Nature Communications, 2015):
Several values for one entry are separate records, joined by “and”; a condition that tells them apart may be missing. Equal entries are not always repeated.

Legend:
[1] = molecular target: HCMV glycoprotein B ectodomain ΔNgB-glyco (HCMV (Merlin strain)) (UniProt F5HB53)
[2] = molecular target: 1G2 IgG heavy chain R31S (human); assay: SPR
[3] = molecular target: 1G2 IgG heavy chain F104A (human); assay: SPR
[4] = molecular target: 1G2 IgG heavy chain S32A (human); assay: SPR
[5] = molecular target: 1G2 IgG heavy chain N102A (human); assay: SPR
[6] = molecular target: 1G2 IgG light chain Y50A (human); assay: SPR
[7] = molecular target: 1G2 IgG light chain R51A (human); assay: SPR
[8] = molecular target: 1G2 IgG heavy chain Y103A (human); assay: SPR
[9] = molecular target: 1G2 IgG (neutralizing human monoclonal antibody) (human); assay: SPR
[10] = molecular target: 1G2 IgG heavy chain Y109A (human); assay: SPR
[11] = molecular target: T1, HCMV glycoprotein B ectodomain gB-698glyco (Human cytomegalovirus, Merlin, UniProt F5HB53, Ile156His | His157Arg | Trp240Asn | Tyr242Thr | Cys246Ser | Arg457Ser | …); assay: co-IP; soluble gB ectodomain (gB-698glyco) in 1% NP40, incubated with 10 μg 1G2 for 16 h at 4 °C, Dynabeads Protein A, blot with ITC88; settings: both partners purified
T1 construct: also called postfusion gB; soluble gB ectodomain; source: CHO lec- cells, stably expressed, secreted, purified (Ni-NTA, SEC)

full-length WT HCMV gB [12] = molecular target: T2, full-length WT HCMV gB (HCMV (strain ), UniProt F5HB53); assay: flow cytometry on cells; BHK cells electroporated with full-length gB RNA, surface stained with 1 μg antibody per sample, goat anti-human IgG Alexa Fluor 647; gated on viable, dsRNA+ cells; settings: one partner purified
T2 construct: also called FL-gB; membrane-anchored full-length gB; source: BHK cells electroporated with RNA encoding full-length gB, on the cell surface

[13] = molecular target: T3, HCMV virion gB (strain VR1814) (Human cytomegalovirus (HHV-5), strain …, UniProt Q69163, strain); assay: co-IP; cushion-purified VR1814 virions (500 μg) lysed in 1% NP40, incubated with 10 μg 1G2 for 16 h at 4 °C, Dynabeads Protein A, blot with ITC88; settings: one partner purified
T3 construct: also called gB from virions; source: cushion-purified VR1814 virions, lysed in 1% NP40

full-length WT HCMV gB [14] = molecular target: T2, full-length WT HCMV gB; assay: cell-based or functional assay

Molecule: 1G2 IgG (neutralizing human monoclonal antibody)
- neutralisation EC50, HCMV TB40/E infection of ARPE-19 epithelial cells [1]: 0.1 mg/L

Molecule: HCMV glycoprotein B ectodomain ΔNgB-glyco (from UniProt F5HB53 25-698) (domain or fragment)
- Kd [2]: 0.22 nM
- koff [2]: 6.07e-05 s⁻¹
- kon [2]: 273000 M⁻¹ s⁻¹
- Kd [3]: 1.53 nM
- koff [3]: 0.00045 s⁻¹
- kon [3]: 294000 M⁻¹ s⁻¹
- Kd [4]: 0.03 nM
- koff [4]: 1.06e-05 s⁻¹
- kon [4]: 396000 M⁻¹ s⁻¹
- Kd [5]: 1.71 nM
- koff [5]: 0.000526 s⁻¹
- kon [5]: 306000 M⁻¹ s⁻¹
- Kd [6]: 0.33 nM
- koff [6]: 0.000118 s⁻¹
- kon [6]: 357000 M⁻¹ s⁻¹
- Kd [7]: 0.16 nM
- koff [7]: 5.11e-05 s⁻¹
- kon [7]: 327000 M⁻¹ s⁻¹
- Kd [8]: 2.36 nM
- koff [8]: 0.000766 s⁻¹
- kon [8]: 325000 M⁻¹ s⁻¹
- Kd [9]: 0.13 nM and 0.17 nM
- koff [9]: 3.75e-05 s⁻¹ and 6.36e-05 s⁻¹
- kon [9]: 295000 M⁻¹ s⁻¹ and 370000 M⁻¹ s⁻¹
- Kd [10]: 0.24 nM
- koff [10]: 7.67e-05 s⁻¹
- kon [10]: 324000 M⁻¹ s⁻¹

Molecule: ΔNgB-glyco E292A (from UniProt F5HB53 25-698) (domain or fragment)
- Kd [9]: 0.82 nM
- koff [9]: 0.000108 s⁻¹
- kon [9]: 132000 M⁻¹ s⁻¹

Molecule: ΔNgB-glyco F290A (from UniProt F5HB53 25-698) (domain or fragment)
- Kd [9]: 3.79 nM
- koff [9]: 0.000249 s⁻¹
- kon [9]: 66000 M⁻¹ s⁻¹

Molecule: ΔNgB-glyco F297A (from UniProt F5HB53 25-698) (domain or fragment)
- Kd [9]: 13.7 nM
- koff [9]: 0.000267 s⁻¹
- kon [9]: 19000 M⁻¹ s⁻¹

Molecule: ΔNgB-glyco F298A (from UniProt F5HB53 25-698) (domain or fragment)
- Kd [9]: 0.26 nM
- koff [9]: 5.59e-05 s⁻¹
- kon [9]: 214000 M⁻¹ s⁻¹

Molecule: ΔNgB-glyco I299A (from UniProt F5HB53 25-698) (domain or fragment)
- Kd [9]: 0.58 nM
- koff [9]: 9e-05 s⁻¹
- kon [9]: 155000 M⁻¹ s⁻¹

Molecule: ΔNgB-glyco N281A (from UniProt F5HB53 25-698) (domain or fragment)
- Kd [9]: 0.21 nM
- koff [9]: 4.57e-05 s⁻¹
- kon [9]: 218000 M⁻¹ s⁻¹

Molecule: ΔNgB-glyco N284A (from UniProt F5HB53 25-698) (domain or fragment)
- Kd [9]: 0.24 nM
- koff [9]: 7.66e-05 s⁻¹
- kon [9]: 320000 M⁻¹ s⁻¹

Molecule: ΔNgB-glyco N286A (from UniProt F5HB53 25-698) (domain or fragment)
- Kd [9]: 0.07 nM
- koff [9]: 4.89e-05 s⁻¹
- kon [9]: 724000 M⁻¹ s⁻¹

Molecule: ΔNgB-glyco N293A/D295A (from UniProt F5HB53 25-698) (domain or fragment)
- Kd [9]: 0.35 nM
- koff [9]: 8.43e-05 s⁻¹
- kon [9]: 240000 M⁻¹ s⁻¹

Molecule: ΔNgB-glyco T283A (from UniProt F5HB53 25-698) (domain or fragment)
- Kd [9]: 0.23 nM
- koff [9]: 6.99e-05 s⁻¹
- kon [9]: 310000 M⁻¹ s⁻¹

Molecule: ΔNgB-glyco Y280A (from UniProt F5HB53 25-698) (domain or fragment)
- Kd [9]: 29.3 nM
- koff [9]: 0.000195 s⁻¹
- kon [9]: 7000 M⁻¹ s⁻¹

Molecule: ΔNgB-glyco YND-AAA (Y280A/N293A/D295A) (from UniProt F5HB53 25-698) (domain or fragment)
- Kd [9]: 18.7 nM
- koff [9]: 0.000392 s⁻¹
- kon [9]: 21000 M⁻¹ s⁻¹

B1: 1G2 IgG (neutralizing human monoclonal antibody) (antibody, V domains shown)
VH: QLQLQESGPGLVKPSETLSLTCTVSGASIDRSTYYWGWIRQPPGKGLEWIANIYYNGRAVYSPSLKSRVTISVDTSKNQFSLKVRSLTAADTAVYYCATRWNYFFDFDYWGRGTLVTVSS
VL: QSVLTQPPSASGTPGQRVTISCSGSSSNIETNYVSWYQQFPGTAPKLLIYRNNQRPSGVPDRFSGSKSGTSASLAISGLRSEDEAEYYCGTWDDNSWVFGGGTKLTVL
notes: IgG1; also called 1G2 mAb; WT 1G2
- binding result [11]: binds
- binding result (full-length WT HCMV gB [12]): binds
- binding result [13]: binds
- neutralisation EC50, gB on virus of HCMV strain 8816 (Ala287), ARPE-19 cells (full-length WT HCMV gB [14]): 0.046 mg/L
- neutralisation EC50, gB on virus of HCMV strain 8819 (Ala287), ARPE-19 cells (full-length WT HCMV gB [14]): 0.485 mg/L
- neutralisation EC50, gB on virus of HCMV strain 8819 (Ala287), NHDF cells (full-length WT HCMV gB [14]): 0.85 mg/L
- neutralisation EC50, gB on virus of HCMV strain 8822 (Ala287), ARPE-19 cells (full-length WT HCMV gB [14]): 0.319 mg/L
- neutralisation EC50, gB on virus of HCMV strain 8822 (Ala287), NHDF cells (full-length WT HCMV gB [14]): 0.485 mg/L
- neutralisation EC50, gB on virus of HCMV strain 8824 (Ala287), ARPE-19 cells (full-length WT HCMV gB [14]): 0.019 mg/L
- neutralisation EC50, gB on virus of HCMV strain 8824 (Ala287), NHDF cells (full-length WT HCMV gB [14]): 0.043 mg/L
- neutralisation EC50, gB on virus of HCMV strain TM-28175 (Ala287), NHDF cells (full-length WT HCMV gB [14]): 0.138 mg/L
- neutralisation EC50, gB on virus of HCMV strain TR (Ala287), ARPE-19 cells (full-length WT HCMV gB [14]): 0.248 mg/L
- neutralisation EC50, gB on virus of HCMV strain TR (Ala287), NHDF cells (full-length WT HCMV gB [14]): 0.303 mg/L
